# Molecular target: rNaV1.3 channels (rat), P08104
# Experiment: cell-based or functional assay
# rNaV1.3 channels (rat), P08104, sequence (P08104 whole entry): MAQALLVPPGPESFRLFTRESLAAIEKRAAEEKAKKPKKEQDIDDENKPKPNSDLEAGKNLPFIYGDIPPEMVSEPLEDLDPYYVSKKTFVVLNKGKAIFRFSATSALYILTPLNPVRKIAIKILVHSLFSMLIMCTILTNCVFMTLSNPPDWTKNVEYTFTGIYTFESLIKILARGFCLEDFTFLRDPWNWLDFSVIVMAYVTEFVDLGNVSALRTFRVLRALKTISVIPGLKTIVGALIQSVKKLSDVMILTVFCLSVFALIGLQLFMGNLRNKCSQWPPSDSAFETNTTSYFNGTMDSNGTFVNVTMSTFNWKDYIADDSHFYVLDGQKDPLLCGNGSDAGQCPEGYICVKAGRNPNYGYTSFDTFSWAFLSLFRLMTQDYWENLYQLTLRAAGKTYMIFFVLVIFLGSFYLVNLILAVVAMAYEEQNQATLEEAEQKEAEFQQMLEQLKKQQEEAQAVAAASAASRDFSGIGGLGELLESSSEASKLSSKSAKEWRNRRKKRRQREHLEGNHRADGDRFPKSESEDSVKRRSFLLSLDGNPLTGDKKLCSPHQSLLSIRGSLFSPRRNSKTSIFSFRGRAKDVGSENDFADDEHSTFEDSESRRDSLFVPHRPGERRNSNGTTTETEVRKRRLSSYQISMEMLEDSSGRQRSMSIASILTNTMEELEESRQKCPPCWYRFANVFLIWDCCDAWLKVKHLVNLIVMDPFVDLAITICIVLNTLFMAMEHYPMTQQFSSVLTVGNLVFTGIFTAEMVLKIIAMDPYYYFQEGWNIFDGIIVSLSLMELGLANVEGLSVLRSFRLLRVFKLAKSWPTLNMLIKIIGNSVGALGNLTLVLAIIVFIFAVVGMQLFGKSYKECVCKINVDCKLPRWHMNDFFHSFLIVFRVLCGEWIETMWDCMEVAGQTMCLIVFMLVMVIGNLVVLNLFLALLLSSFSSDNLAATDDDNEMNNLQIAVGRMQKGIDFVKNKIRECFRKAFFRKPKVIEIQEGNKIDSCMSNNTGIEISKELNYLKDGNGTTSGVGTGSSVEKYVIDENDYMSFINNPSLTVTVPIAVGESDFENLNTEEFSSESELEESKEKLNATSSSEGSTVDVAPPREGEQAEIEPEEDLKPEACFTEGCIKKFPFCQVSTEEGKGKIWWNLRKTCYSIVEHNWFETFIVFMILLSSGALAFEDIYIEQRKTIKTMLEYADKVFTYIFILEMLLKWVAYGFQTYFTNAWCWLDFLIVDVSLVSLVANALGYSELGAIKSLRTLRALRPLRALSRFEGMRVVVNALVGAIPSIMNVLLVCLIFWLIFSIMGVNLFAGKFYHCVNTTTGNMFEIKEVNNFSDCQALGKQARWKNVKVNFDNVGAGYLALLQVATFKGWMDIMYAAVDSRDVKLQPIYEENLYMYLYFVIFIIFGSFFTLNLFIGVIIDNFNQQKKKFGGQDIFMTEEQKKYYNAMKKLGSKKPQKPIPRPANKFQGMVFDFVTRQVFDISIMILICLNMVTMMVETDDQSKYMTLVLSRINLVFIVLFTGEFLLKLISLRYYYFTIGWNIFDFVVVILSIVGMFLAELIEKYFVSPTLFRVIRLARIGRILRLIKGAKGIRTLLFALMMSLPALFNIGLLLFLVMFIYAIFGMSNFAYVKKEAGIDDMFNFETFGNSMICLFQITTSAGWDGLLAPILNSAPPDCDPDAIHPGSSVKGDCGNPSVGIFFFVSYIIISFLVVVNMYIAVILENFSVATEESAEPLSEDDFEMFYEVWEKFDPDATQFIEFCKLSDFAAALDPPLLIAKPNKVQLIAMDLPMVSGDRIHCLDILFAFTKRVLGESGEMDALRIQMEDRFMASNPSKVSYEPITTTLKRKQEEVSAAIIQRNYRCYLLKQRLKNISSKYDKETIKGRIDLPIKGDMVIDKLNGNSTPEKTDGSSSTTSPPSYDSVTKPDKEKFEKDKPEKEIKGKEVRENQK
binder,measurement,value
DCLGFMRKCIPDNDKCCRPNLVCSRTHKWCKYVF (modifications not checked) [Peptide E],"IC50 Nav1.3 (µM); inhibition of channel current, patch clamp",0.31 µM

# — patent publication US20110065647A1
